Like-named read-outs stand apart in the source and are kept apart here.
T1: VAL1-B3 R306A (Arabidopsis thaliana, UniProt Q8W4L5 288-397, R306A)
T1 sequence: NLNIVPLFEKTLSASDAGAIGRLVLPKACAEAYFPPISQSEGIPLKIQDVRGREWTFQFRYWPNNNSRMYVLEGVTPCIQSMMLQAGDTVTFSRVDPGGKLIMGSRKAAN

T2: VAL1-B3 N352A (Arabidopsis thaliana, UniProt Q8W4L5 288-397, N352A)
T2 sequence: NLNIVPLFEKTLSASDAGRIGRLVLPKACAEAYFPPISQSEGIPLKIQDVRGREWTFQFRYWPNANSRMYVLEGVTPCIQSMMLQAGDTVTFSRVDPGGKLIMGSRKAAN

T3: VAL1-B3 I307A (Arabidopsis thaliana, UniProt Q8W4L5 288-397, I307A)
T3 sequence: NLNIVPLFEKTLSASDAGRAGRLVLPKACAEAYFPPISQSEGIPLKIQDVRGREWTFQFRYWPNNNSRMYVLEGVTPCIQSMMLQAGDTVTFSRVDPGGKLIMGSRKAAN

T4: VAL1-B3 wt (C-terminal His6) (Arabidopsis thaliana, UniProt Q8W4L5 288-397)
T4 sequence: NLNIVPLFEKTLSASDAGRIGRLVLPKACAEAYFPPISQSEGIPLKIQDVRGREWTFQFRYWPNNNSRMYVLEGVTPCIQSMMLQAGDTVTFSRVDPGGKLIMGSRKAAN

T5: VAL1-B3 Q345R (Arabidopsis thaliana, UniProt Q8W4L5 288-397, Q345R)
T5 sequence: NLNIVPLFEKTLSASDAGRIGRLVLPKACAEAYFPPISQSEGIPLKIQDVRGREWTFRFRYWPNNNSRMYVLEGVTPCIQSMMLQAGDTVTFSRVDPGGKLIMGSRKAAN


Tests used:
Assay in all cases: EMSA
[1] = target: T1, VAL1-B3 R306A
[2] = target: T2, VAL1-B3 N352A
[3] = target: T3, VAL1-B3 I307A
[4] = target: T4, VAL1-B3 wt (C-terminal His6)
[5] = target: T5, VAL1-B3 Q345R
[6] = target: T4, VAL1-B3 wt (C-terminal His6); remark: listed apart in the source
[7] = target: T4, VAL1-B3 wt (C-terminal His6); remark: listed apart in the source

Binder	binding result [7]	further results
12/12SP (dsDNA) DNA 1: CGGTGCATGGCT DNA 2: AGCCATGCACCG		binding result [1]: no binding; binding result [2]: binds; binding result [3]: binds; Kd [4]: ~3 µM; binding result [5]: binds
12/12SP_2 (dsDNA) DNA 1: CGCTGCATGCCT DNA 2: AGGCATGCAGCG		binding result [6]: binds
12/12_1A (dsDNA) DNA 1: CGGAGCATGGCT DNA 2: AGCCATGCTCCG	no binding	
12/12_1C (dsDNA) DNA 1: CGGCGCATGGCT DNA 2: AGCCATGCGCCG	no binding	
12/12_2C (dsDNA) DNA 1: CGGTCCATGGCT DNA 2: AGCCATGGACCG	no binding	
12/12_2A (dsDNA) DNA 1: CGGTACATGGCT DNA 2: AGCCATGTACCG	no binding	
12/12_2T (dsDNA) DNA 1: CGGTTCATGGCT DNA 2: AGCCATGAACCG	no binding	
12/12_3A (dsDNA) DNA 1: CGGTGAATGGCT DNA 2: AGCCATTCACCG	no binding	
12/12_3T (dsDNA) DNA 1: CGGTGTATGGCT DNA 2: AGCCATACACCG	no binding	
12/12_4T (dsDNA) DNA 1: CGGTGCTTGGCT DNA 2: AGCCAAGCACCG	no binding	
12/12_5A (dsDNA) DNA 1: CGGTGCAAGGCT DNA 2: AGCCTTGCACCG	no binding	
12/12_5C (dsDNA) DNA 1: CGGTGCACGGCT DNA 2: AGCCGTGCACCG	no binding	
12/12_6A (dsDNA) DNA 1: CGGTGCATAGCT DNA 2: AGCTATGCACCG	no binding	
12/12_6T (dsDNA) DNA 1: CGGTGCATTGCT DNA 2: AGCAATGCACCG	no binding	
12/12_6C (dsDNA) DNA 1: CGGTGCATCGCT DNA 2: AGCGATGCACCG	no binding	

From article PMC5934628
